From paper PMC9482650, “Quantitative fragmentomics allow affinity mapping of interactomes” (Nature Communications, 2022)

T1: APBA3_2, O96018
T1 sequence (O96018 480-570, limits assumed, looked up): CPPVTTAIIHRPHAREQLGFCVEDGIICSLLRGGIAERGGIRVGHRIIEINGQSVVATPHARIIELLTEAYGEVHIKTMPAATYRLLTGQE

T2: DVL1, O14640
T2 sequence (O14640 246-333, limits assumed, looked up): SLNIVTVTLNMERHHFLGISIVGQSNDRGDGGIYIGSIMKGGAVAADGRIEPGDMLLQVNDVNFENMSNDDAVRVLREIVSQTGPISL

T3: MAGI2_1, Q86UL8
T3 sequence (Q86UL8 12-111, limits assumed, looked up): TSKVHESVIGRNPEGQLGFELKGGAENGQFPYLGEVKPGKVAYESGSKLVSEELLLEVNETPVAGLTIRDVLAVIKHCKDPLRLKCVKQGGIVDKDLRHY

T4: MPDZ_2, O75970
T4 sequence (O75970 252-347, limits assumed, looked up): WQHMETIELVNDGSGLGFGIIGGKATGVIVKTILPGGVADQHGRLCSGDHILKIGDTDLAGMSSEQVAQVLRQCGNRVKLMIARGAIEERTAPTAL

T5: NHERF1_1, O14745
T5 sequence (O14745 9-104, limits assumed, looked up): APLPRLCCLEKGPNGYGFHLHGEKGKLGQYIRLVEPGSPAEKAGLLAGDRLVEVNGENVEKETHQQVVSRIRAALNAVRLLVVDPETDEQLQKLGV

T6: PARD6G, Q9BYG4
T6 sequence (Q9BYG4 153-261, limits assumed, looked up): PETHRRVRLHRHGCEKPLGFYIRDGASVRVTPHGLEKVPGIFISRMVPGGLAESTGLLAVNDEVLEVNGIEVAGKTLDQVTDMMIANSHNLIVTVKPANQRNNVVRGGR

T7: PDZD11, Q5EBL8
T7 sequence (Q5EBL8 42-139, limits assumed, looked up): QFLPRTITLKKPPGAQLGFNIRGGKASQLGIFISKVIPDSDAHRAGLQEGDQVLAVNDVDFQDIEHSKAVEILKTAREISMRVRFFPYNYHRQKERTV

T8: PDZD2_6, O15018
T8 sequence (O15018 2745-2839, limits assumed, looked up): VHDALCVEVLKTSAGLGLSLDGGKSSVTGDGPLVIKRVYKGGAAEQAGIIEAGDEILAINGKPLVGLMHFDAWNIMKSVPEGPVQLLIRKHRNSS

T9: PDZD4, Q76G19
T9 sequence (Q76G19 125-224, limits assumed, looked up): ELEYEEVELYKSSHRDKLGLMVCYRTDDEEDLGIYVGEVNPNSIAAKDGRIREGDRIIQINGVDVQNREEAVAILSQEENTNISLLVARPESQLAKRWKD

T10: PDZD7_2, Q9H5P4
T10 sequence (Q9H5P4 205-303, limits assumed, looked up): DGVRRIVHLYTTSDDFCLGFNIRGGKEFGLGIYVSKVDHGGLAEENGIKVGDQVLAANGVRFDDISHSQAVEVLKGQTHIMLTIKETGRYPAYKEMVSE

T11: SHANK2, Q9UPX8
T11 sequence (Q9UPX8 621-730, limits assumed, looked up): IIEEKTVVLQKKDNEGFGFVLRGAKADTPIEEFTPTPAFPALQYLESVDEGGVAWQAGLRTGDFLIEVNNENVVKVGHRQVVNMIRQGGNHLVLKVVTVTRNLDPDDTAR

T12: SYNPO2L, Q9H987
T12 sequence (Q9H987 1-98, limits assumed, looked up): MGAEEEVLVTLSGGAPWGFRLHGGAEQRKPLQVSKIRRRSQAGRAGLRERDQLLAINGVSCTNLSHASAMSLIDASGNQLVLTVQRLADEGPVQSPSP

T13: INTU, Q9ULD6
T13 sequence (Q9ULD6 180-273, limits assumed, looked up): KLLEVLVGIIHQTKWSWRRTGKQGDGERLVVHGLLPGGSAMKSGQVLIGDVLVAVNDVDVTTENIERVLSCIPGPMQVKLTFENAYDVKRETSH

B1: KCNA5, P22460 (peptide)
chain: CLDTSRETDL
B2: MAP2K2, P36507 (peptide)
chain: QPGTPTRTAV
B3: SLCO1C1, Q9NYB5 (peptide)
chain: NYWPGKETQL
B4: PBK, Q96KB5 (peptide)
chain: HIVEALETDV
B5: ARHGEF16, Q5VV41 (peptide)
chain: MERLRVETDV

How the values were obtained:
Test in all cases: holdup assay
Design in all cases: key: below the threshold = too weak to quantify, mostly under pKd 3.1 to 4
Conditions in all cases: plain residues with an end cap or a label only (N-terminal biotin on a linker: ttds)
AHNAK2, Q8IVF2 = target: AHNAK2, Q8IVF2
Chain of AHNAK2, Q8IVF2 (Q8IVF2 108-193): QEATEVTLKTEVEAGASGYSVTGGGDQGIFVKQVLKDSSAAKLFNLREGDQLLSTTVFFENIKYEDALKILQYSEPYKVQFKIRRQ

APBA3_2, O96018 = target: T1, APBA3_2, O96018
DVL1, O14640 = target: T2, DVL1, O14640
LIMK1, P53667 = target: LIMK1, P53667
Chain of LIMK1, P53667 (P53667 155-268): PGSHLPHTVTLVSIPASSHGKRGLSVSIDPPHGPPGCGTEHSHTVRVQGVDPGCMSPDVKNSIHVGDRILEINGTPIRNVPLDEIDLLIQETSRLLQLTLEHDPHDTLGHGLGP

MAGI2_1, Q86UL8 = target: T3, MAGI2_1, Q86UL8
MPDZ_2, O75970 = target: T4, MPDZ_2, O75970
NHERF1_1, O14745 = target: T5, NHERF1_1, O14745
O00560 = target: O00560
O60759 = target: O60759
O75970 = target: O75970
PARD6G, Q9BYG4 = target: T6, PARD6G, Q9BYG4
PDZD11, Q5EBL8 = target: T7, PDZD11, Q5EBL8
PDZD2_6, O15018 = target: T8, PDZD2_6, O15018
PDZD4, Q76G19 = target: T9, PDZD4, Q76G19
PDZD7_2, Q9H5P4 = target: T10, PDZD7_2, Q9H5P4
PDZD9, Q8IXQ8 = target: PDZD9, Q8IXQ8
Chain of PDZD9, Q8IXQ8 (Q8IXQ8 23-120): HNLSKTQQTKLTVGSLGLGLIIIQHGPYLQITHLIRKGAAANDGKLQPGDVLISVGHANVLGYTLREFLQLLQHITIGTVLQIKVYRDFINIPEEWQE

Q6ZWJ1 = target: Q6ZWJ1
Q8IUC4 = target: Q8IUC4
Q8TEW0 = target: Q8TEW0
Q9C0E4 = target: Q9C0E4
Q9P227 = target: Q9P227
Q9ULJ8 = target: Q9ULJ8
SHANK2, Q9UPX8 = target: T11, SHANK2, Q9UPX8
SYNPO2L, Q9H987 = target: T12, SYNPO2L, Q9H987
INTU, Q9ULD6 = target: T13, INTU, Q9ULD6

Binder | pKd (AHNAK2, Q8IVF2) | pKd (APBA3_2, O96018) | pKd (DVL1, O14640) | pKd (LIMK1, P53667) | pKd (MAGI2_1, Q86UL8) | pKd (MPDZ_2, O75970) | pKd (NHERF1_1, O14745) | pKd (O00560) | pKd (O60759) | pKd (O75970) | pKd (PARD6G, Q9BYG4) | pKd (PDZD11, Q5EBL8) | pKd (PDZD2_6, O15018) | pKd (PDZD4, Q76G19) | pKd (PDZD7_2, Q9H5P4) | pKd (PDZD9, Q8IXQ8) | pKd (Q6ZWJ1) | pKd (Q8IUC4) | pKd (Q8TEW0) | pKd (Q9C0E4) | further results
B1 | below the threshold | below the threshold | below the threshold | 4.3 | below the threshold | below the threshold | below the threshold | below the threshold | below the threshold | below the threshold | below the threshold | below the threshold | below the threshold | below the threshold | below the threshold | below the threshold | below the threshold | below the threshold | below the threshold | below the threshold | pKd (Q9P227): below the threshold; pKd (Q9ULJ8): below the threshold; pKd (SHANK2, Q9UPX8): below the threshold; pKd (SYNPO2L, Q9H987): below the threshold
B2 | below the threshold | below the threshold | below the threshold | 4.2 | below the threshold | below the threshold | below the threshold | below the threshold | below the threshold | below the threshold | below the threshold | below the threshold | below the threshold | 4.21 | below the threshold | below the threshold | below the threshold | below the threshold | below the threshold | below the threshold | pKd (INTU, Q9ULD6): below the threshold; pKd (Q9P227): below the threshold; pKd (Q9ULJ8): below the threshold; pKd (SHANK2, Q9UPX8): below the threshold; pKd (SYNPO2L, Q9H987): below the threshold
B3 | 4.41 | below the threshold | below the threshold | below the threshold | below the threshold | below the threshold | below the threshold | below the threshold | below the threshold | below the threshold | below the threshold | below the threshold | below the threshold | below the threshold | below the threshold | below the threshold | below the threshold | below the threshold | below the threshold | below the threshold | pKd (INTU, Q9ULD6): below the threshold; pKd (Q9P227): below the threshold; pKd (Q9ULJ8): below the threshold; pKd (SHANK2, Q9UPX8): 4.64; pKd (SYNPO2L, Q9H987): below the threshold
B4 | below the threshold | below the threshold | below the threshold | 4.63 | below the threshold | below the threshold | below the threshold | below the threshold | below the threshold | below the threshold | below the threshold | below the threshold | below the threshold | below the threshold | below the threshold | below the threshold | below the threshold | below the threshold | below the threshold | below the threshold | pKd (INTU, Q9ULD6): 4.9; pKd (Q9P227): below the threshold; pKd (Q9ULJ8): below the threshold; pKd (SHANK2, Q9UPX8): below the threshold; pKd (SYNPO2L, Q9H987): below the threshold
B5 | below the threshold | below the threshold | below the threshold | below the threshold | below the threshold | below the threshold | below the threshold | below the threshold | below the threshold | below the threshold | below the threshold | below the threshold | below the threshold | below the threshold | 4.24 | below the threshold | below the threshold | below the threshold | below the threshold | below the threshold | pKd (INTU, Q9ULD6): 4.32; pKd (Q9P227): below the threshold; pKd (Q9ULJ8): below the threshold; pKd (SHANK2, Q9UPX8): below the threshold; pKd (SYNPO2L, Q9H987): below the threshold
